Laboratory results taken from the DeepSol protein solubility set.

Test: soluble on expression in E. coli; label from the status in PepcDB or PDB records

Sequence	soluble on expression in E. coli
MGSDKIHHHHHHMSGHKCSYPWDLQDRYAQDKSVVNKMQQKYWETKQAFIKATGKKEDEHVVASDADLDAKLELFHSIQRTCLDLSKAIVLYQKRICFLSQEENELGKFLRSQGFQDKTRAGKMMQATGKALCFSSQQRLALRNPLCRFHQEVETFRHRAISDTWLTVNRMEQCRTEYRGALLWMKDVSQELDPDLYKQMEKFRKVQTQVRLAKKNFDKLKMDVCQKVDLLGASRCNLLSHMLATYQTTLLHFWEKTSHTMAAIHESFKGYQPYEFTTLKVWKLEGPLENLEKSKVLFISQAKSIAESIIIPGLRMLKRELCPQQSLFLSFFLFFYCIRIQYNENLLQSKSAN	not soluble
MSTPFGLDLGNNNSVLAVARNRGIDIVVNEVSNRSTPSVVGFGPKNRYLGETGKNKQTSNIKNTVANLKRIIGLDYHHPDFEQESKHFTSKLVELDDKKTGAEVRFAGEKHVFSATQLAAMFIDKVKDTVKQDTKANITDVCIAVPPWYTEEQRYNIADAARIAGLNPVRIVNDVTAAGVSYGIFKTDLPEGEEKPRIVAFVDIGHSSYTCSIMAFKKGQLKVLGTACDKHFGGRDFDLAITEHFADEFKTKYKIDIRENPKAYNRILTAAEKLKKVLSANTNAPFSVESVMNDVDVSSQLSREELEELVKPLLERVTEPVTKALAQAKLSAEEVDFVEIIGGTTRIPTLKQSISEAFGKPLSTTLNQDEAIAKGAAFICAIHS	not soluble
SSKAIPKQDIPEIAYERFTLPNGLTVIVHEDHKAPVIAVNVWYHIGSADEPARKTGFAHLFEHLMFSGSENHKASYFQPFEKIGATGMNGTTWFDRTNYFQTVPTTALDMALWMESDRMGHLLGAIGQKELDTQRGVVKNEKRQRENVPYGRVTQNILSNLFPANHPYQHSTIGSMEDLEAASLADVKSWFQAHYGAANATLVLAGDITLAEARDKAAKYFGDIPAGPPVA	not soluble
MLRATNNRRTSNNVEKDSLQMAKHGNGPLKPVNAQGLQTKREAREILALKPSNPAPVETAQKSQRINLQDAETKCLAMADDIYKYLVHHEKKYLLEECFMEGGEPTPKMRRILVDWLVQVHVRFHLTPETLHLTVFILDRMLQKKVTSKADLQLLGISAMFVASKFEEVYLPDIHDYEFITENTYSKKQILAMEQTILNSLNFDLSCPSSLVFLRCLSRILSENDASPIDNQAFCYTYNISKCLGELALLDSVMASTPRSHIASASMIIALEVHPVDGIEAENAVSVICKQLGASKKVIEDAVALLAEVSYKNFKQGKLVAIKNKYQSSKLAQVSNLMTDDVLEKINRMGQNAKVDASEME	soluble
MSLGKLFGTDGIRGVTNTELQPEFALKIGKAIGTYFGKGARILIGRDVRAGGDMLLKAVESGLLSSGVLVYEAGMAPTPAFQYGVKALGYDGGVIITASHNPAEYNGIKVLSPHGIEISREDEDKIEDIYFNSRFHVVEWNGLVNDVKREDKVIETYLRGILSHVDTEKIKSKKYKVLIDPANSVGTLVTPIVARELGCKVFTINGNLDPLFSARTPEPTFESLTESAKVAKQLGVDLAVAHDGDADRAIFIDSMGRVQWGDRSGTLLSYWASVKAPNLPRRIFTAVSSSSLVEEYLKKYNIEVKWTKVGSIDIAHMLFKEKGVAGFEENGGFMYPPHQTVRDGAMSFALMLDMMASENESSAELFNRLPVYYLVKTKVRVTEKSDIKKIYDEVMNKYGNYGNTVTIDGVKIIGSDFWLLVRKSGTEPIIRILVEAKDENKSKELAKELEKLVSELVEGHHHHHH	soluble
MGSDKIHHHHHHMNKQVSTRGTKEKALRLNLDDKKYGTIVEIGAGQEVARNFFVAGAAAGTIAKTMSAYDMTFSDAIYGVQQDGRYVSKARVQAMMEQELDLVIERVGDVRSKSSRYFTYAATVAAKSFNRNNECHAWCGVRVQMYPGAEPSNIVVHVRMFDDNAEAQQQALGVLGVNLIYAAYYYFEDPKKIIDSLTDDLKANRIEIDCIEFQGPYFEDIDSRAKNIHLIRSWKTRAIMFKPDGSVAVPAEMLYKKNVLTIRGSFKPVTKLNVDMIEQGEKAFAELEGVSKDNTIVIAEISLNDSHGKDANMSSTDIIERVKLLNLLGYNVMVSDYTRYFSLRAYFRQYTKLQIGIVVGMINIKQIFDETFYRGLEGGILEGFGKLFPDHTRVFVYPELSETGELKDLTTVNVPNNLRYLYRHLLDNGFITSIESSDINLFSYFSREILKQIAKGSDEWQQALPQPVIDEIISKKLFGYRG	not soluble
MLLQLAEDRRRLKGVQSTVKKAEIKVELLPKYAAWAEGVLAAGGAQQDDVLMYVMLWRIDAGDYAGALEIGRHALRHGWVMPLGNRNVQTVLAEEMADAAQSAMLATTGFDVDLLLQTLELTDGLDMPDQSRARLHKAIGAVLSESNPASALNHLNHALQLDPRCGVKKDKQQLERRLRNDSR	not soluble
MAGDPNSMKYSDLRDFIAQLESRELLKRIDYPVSPHLEMTLVSDKVLRSGGPALLFTNTPNYNMPVLTNLFGTVERVALGMGEESIVALREIGKLLAALKEPDPPKGFKDAFSKLPLLKQALNMAPKYVSGAECQTHVWEKDEVDLTLLPIQTCWPGDVAPLITWGLVTTRGPHQSRENMGIYRQQLLSKNKLIMRWLSHRGGALDYQAWQQEYPKERFPVAVTLGADPATILAAVTPVPDTLSEYAFAGLLRGQRTRLTRCIGNDLHVPASAEIVLEGYLEPGNEAPEGPYGDHTGYYNEVQSFPVFTVERITHRDKPIYHSTYTGRPPDEPAILGVALNEVFIPLLQKQFPEIVDFYLPPEGCSYRLAVVTIKKQYPGHAKRIMMAVWSFLRQFMYTKFVIVCDDDVDARNWQDVIWAMTTRMDPSRDTVMVENTPIDYLDFASPVSGLGSKMGMDATSKWPGETQREWGKPITMDEDVLNRVNGYWSLLGLKLEHHHHHH	not soluble
SLNEQELQDLQKMVGVAVNALGDIKAKDISVLETQDKTSLFARMIIASGDSTRQVKALANNVAVDLKEAGFEILSTEGDSGEWTLVDAGDLVVHVMLPAVRDFYDIDTLWGGEKPSFHAGMQKPWHAAD	soluble
MSQYVVCALYKFVELNNYQELREPLLALMEKHHIRGTLLLAGEGINGTVASDRAGIDTLLEWLNTEPRLTGTVYKESYSETQPFNRTKVKLKKEIVTLGVEGIDPRHVVGTYVKPQDWNDLIADPEVFVVDTRNDYEIEIGTFKGAVNPNTETFREFPDYVKENMDPAKHKKVAMFCTGGIRCEKSTAYMKEQGFEEVYHLEGGILKYLEEVPQEESMWEGDCYVFDGRVAVNHQLEKADYDLCNACRLPITDEDKQSELFEQGVSCPKCHGKHSEEQVERFREREKQVSLANQRGEQHVGGESAKQRAQRREAKLAKKAAQRKQALEHHHHHH	soluble
MGSDKIHHHHHHMKIGILSQFPELYSTRRLVAACESRGHEAVVINTLNCYMNINSIKPSIHYQGQELTGFDAIIPRIHASVTFYGCAVVRQFEMMGVFAANDSISIARSRDKLRALQLLSRKGIGMPITGFANKPNDIPDLINMVGGAPLVIKLLEGTQGIGVVLAETKTAAESVIEAFLGLKANIMLQEYIKESNGSDIRCFVVGDKVVASMKRQGPEGDFRSNLHLGGCGEKVKITPKERKMAVAAVKAMGLVVAGVDILRSNRGPLILEVNSAPGIEGIEQTTGISVTEPIVEYIEKMVLAQKSNRPVIA	not soluble
MDEEEEISVVQDMAYDYSGKRLATVSIDREICIWNKKDDWQRTYQWKAHEGPLFGVSWAHPCFGNILATGSYDKRVIIWEEPEASSSYSSSSMDKSTKGWTALAHLVDARDEVRQVQFAPPHLGLLLASGSADGYVRIYTCIDEADLHQWPLLTELDMDSPVVGMSWNPSVDSIPLIVVASHKDCRVWSMDNDTRRWTDWHLFRTSESDTADLSAVAWAPHVGRSFERIALGCEDGSILLFQFPRIQQGNKTNGHEMQPICRLNHGNERIVRLQWNMVGSILASSASDRMVRLWKALPQDGTRWNCFDVVHLNE	not soluble
MGHHHHHHSHMEMASADSDEDPRHKVGKTPHLTLPADLQTLHLNRPTLSPESKLEWNNDIPEVNHLNSEHWRKTEKWTGHEETNHLETDFSGDGMTELELGPSPRLQPIRRHPKELPQYGGPGKDIFEDQLYLPVHSDGISVHQMFTMATAEHRSNSSIAGKMLTKVEKNHEKEKSQHLEGSASSSLSSD	not soluble
